The target of assay [1] is T1, human complement factor H (human, UniProt P08603 19-1231).
T1 construct: complement factor H, human, 20 short consensus repeats (SCRs); purified protein or as present in normal human serum; purified human factor H of Calbiochem is the only one named; also called CFH; source: bought: Calbiochem (purified human factor H); also in normal human serum
Briefly: ELISA; competition inhibition assay: HcpA (2 µg/ml) coated; constant CFH (3 µg/ml in the methods, 2 µg/ml in the results) with PLG 0.001-100 µg/ml, or constant PLG (10 µg/ml) with CFH 0.001-100 µg/ml. As to conditions: both partners purified.

The target in the next assay is T2, recombinant CFHR-1 (human, UniProt Q03591 19-330).
T2 construct: complement factor H-related protein 1, human, recombinant; also called CFH-related protein 1
T2 sequence: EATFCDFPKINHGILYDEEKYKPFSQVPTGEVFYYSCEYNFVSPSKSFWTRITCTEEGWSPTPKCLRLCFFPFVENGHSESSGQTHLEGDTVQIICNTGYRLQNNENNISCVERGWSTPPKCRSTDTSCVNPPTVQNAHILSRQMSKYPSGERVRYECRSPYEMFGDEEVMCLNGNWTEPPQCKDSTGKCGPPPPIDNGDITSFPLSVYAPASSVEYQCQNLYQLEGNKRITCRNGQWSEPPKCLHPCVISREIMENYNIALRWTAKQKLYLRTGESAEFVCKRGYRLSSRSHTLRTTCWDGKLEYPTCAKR
Briefly: far-Western, overlay or dot blot; ligand affinity blot: purified recombinant HcpA separated by SDS-PAGE, on nitrocellulose strips, incubated with recombinant CFHL-1, CFH deletion constructs or recombinant CFHR-1; anti-CFH immune serum, mAb JHD7 or JHD8. The following applies: both partners purified.

B1: recombinant full-length HcpA (residues 18 to 175) of B. recurrentis A1 (domain or fragment)
chain: LLSKNANLQPKTLETLESNIDDGQKQALAFFQESLQDNKHLDALKQAQSALLKDIKDKPQKTLNFKYNKTKLEQLFRKLGNDKTKQFLKNLHVTIKFINNGSFQSFSSANFNDLDTLEKKQERAINSIKEELYVNYYLYTNELVDLDYFFYRAMNYLS
notes: HcpA, surface lipoprotein of B. recurrentis A1, residues 18-175, lacking the hydrophobic leader peptide; cloned into pQE-30Xa with primers BrBam and BrSal; also called intact HcpA; source: E. coli JM109, purified as recommended by the manufacturer (Qiagen); not shown: His6, N-terminal, kept
As to B1, the binding result (in assay [1]; in the assay with recombinant CFHR-1) was “binds” in each case.

The values above are taken from publication PMC2654920, “Borrelia recurrentis Employs a Novel Multifunctional Surface Protein with Anti-Complement, Anti-Opsonic and Invasive Potential to Escape Innate Immunity” (PLoS ONE, 2009).
